In patent publication CN108546297A (ACAD OF MILITARY SCIENCES PLA CHINA ACAD OF MILITARY …, dated 2018):

Columns and labels:
[1] = target: T1, PD-1/Fc (UniProt Q15116 25-167); experiment: Biacore SPR: antibody captured by anti-human Fab on a CM5 chip, PD-1/Fc as analyte
T1 construct: also called PD-1/Fc抗原; PD-1/Fc融合蛋白; not shown: Fc part of the fusion

[2] = target: T2, BTLA/Fc (UniProt Q7Z6A9 31-157, limits assumed); experiment: indirect ELISA, antigen coated at 1 μg/mL, goat anti-human F(ab')2-HRP
T2 construct: not shown: Fc part of the fusion
T2 sequence (looked up): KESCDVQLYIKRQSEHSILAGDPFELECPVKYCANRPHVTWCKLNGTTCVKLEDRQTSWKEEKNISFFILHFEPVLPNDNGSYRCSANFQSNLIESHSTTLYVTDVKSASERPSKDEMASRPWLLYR

[3] = target: T3, ICOS/Fc (UniProt Q9Y6W8 21-141); experiment: as above
T3 construct: not shown: Fc part of the fusion
T3 sequence (looked up): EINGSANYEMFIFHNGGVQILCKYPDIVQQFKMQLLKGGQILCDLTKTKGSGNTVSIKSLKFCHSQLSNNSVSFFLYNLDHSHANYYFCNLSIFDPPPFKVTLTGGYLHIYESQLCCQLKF

[4] = target: T4, CD28/Fc (UniProt P10747 19-152); experiment: as above
T4 construct: not shown: Fc part of the fusion
T4 sequence (P10747 19-152 limits assumed): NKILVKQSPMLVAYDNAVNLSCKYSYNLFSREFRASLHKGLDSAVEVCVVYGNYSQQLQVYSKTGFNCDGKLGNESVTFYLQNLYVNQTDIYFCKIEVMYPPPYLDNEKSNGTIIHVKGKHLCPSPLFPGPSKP

[5] = target: T5, CTLA4/Fc (UniProt P16410 36-162, limits assumed); experiment: as above
T5 construct: not shown: Fc part of the fusion
T5 sequence (looked up): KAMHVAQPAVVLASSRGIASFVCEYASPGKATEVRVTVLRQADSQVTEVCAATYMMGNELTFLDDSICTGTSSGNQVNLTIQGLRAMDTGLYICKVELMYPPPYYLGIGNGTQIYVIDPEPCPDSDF

T1 sequence (Q15116 25-167 limits assumed): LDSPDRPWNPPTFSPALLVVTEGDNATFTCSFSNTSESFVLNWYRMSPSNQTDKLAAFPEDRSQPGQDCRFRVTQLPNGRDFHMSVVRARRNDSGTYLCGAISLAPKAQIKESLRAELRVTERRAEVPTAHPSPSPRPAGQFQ

B1: 本发明制备的抗PD-1抗体 (anti-PD-1 monoclonal antibody of the invention) (antibody, V domains shown)
VH: QVQLVESGGGVVQPGRSLRLNCKASGITFSNSGMHWVRQAPGKGLEWVAVIWYDGSKLYYADSVKGRFTISRDNSKNTLFLQMNSLRAEDTAVYYCATDSDYWGQGTLVTVSS
VL: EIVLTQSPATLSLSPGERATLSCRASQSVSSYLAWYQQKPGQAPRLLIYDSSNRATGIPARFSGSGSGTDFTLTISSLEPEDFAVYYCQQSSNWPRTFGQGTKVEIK
notes: Variable regions cloned into the full-length antibody vector PRT/KIgG1 (IgG1 heavy constant region CH1-CH2-CH3, kappa light constant region); also called 本发明制备抗体
Kd [1]: 0.328 nM
koff [1]: 9.6e-05 s⁻¹
kon [1]: 292000 M⁻¹ s⁻¹
binding result [2]: no binding (tested: antibody at 1 μg/mL)
binding result [3]: no binding (tested: antibody at 1 μg/mL)
binding result [4]: no binding (tested: antibody at 1 μg/mL)
binding result [5]: no binding (tested: antibody at 1 μg/mL)
